Assay results taken from PMC11087797 (2024).

B1: soluble CD94-NKG2C NK cell receptor ectodomains (receptor)
chain 1: KNSFTKLSIEPAFTPGPNIELQKDSDCCSCQEKWVGYRCNCYFISSEQKTWNESRHLCASQKSSLLQLQNTDELDFMSSSQQFYWIGLSYSEEHTAWLWENGSALSQYLFPSFETFNTKNCIAYNPNGNALDESCEDKNRYICKQQLI
chain 2: not shown
B2: soluble CD94-NKG2A NK cell receptor ectodomains (receptor)
chain 1: B1 chain 1
chain 2: not shown

Assays:
Test in all cases: SPR; peptide …
LB7(3-11)-HLA-E*01:03 = target: LB7(3-11)-HLA-E*01:03
LA1(3-11)-HLA-E*01:03 = target: LA1(3-11)-HLA-E*01:03
LA34(3-11)-HLA-E*01:03 = target: LA34(3-11)-HLA-E*01:03
LA80(3-11)-HLA-E*01:03 = target: LA80(3-11)-HLA-E*01:03
LCw3(3-11)-HLA-E*01:03 = target: LCw3(3-11)-HLA-E*01:03

Row | Binder | Kd (LB7(3-11)-HLA-E*01:03) [µM] | Kd (LA1(3-11)-HLA-E*01:03) [µM] | Kd (LA34(3-11)-HLA-E*01:03) [µM] | Kd (LA80(3-11)-HLA-E*01:03) [µM] | Kd (LCw3(3-11)-HLA-E*01:03) [µM]
1 | B1 | 25.5 | 11.3 | 13.5 | 42.8 | 22
2 | B2 | 3.3 | 1.5 | 1.8 | 2.1 | 1.5
